Starred links: 1 amine or outer side, 2 acyl side, 3 side chain; linkers in the order of their positions; H or OH if unused. Non-standard residues stand in square brackets, D forms with d. Groups on a side chain read outwards from the residue. No end group written: not given here. *: point of attachment. C18 diacid = O=C(O)CCCCCCCCCCCCCCCCC(=O)*; γGlu = O=C(O)[C@H](CCC(=O)[*:2])N[*:1]; Palmitoyl = CCCCCCCCCCCCCCCC(=O)*; AEEA = NCCOCCOCC(=O)O; Aib = CC(C)(N)C(=O)O
T1: anti-target CRF1R receptor (UniProt P34998 24-415, limits assumed)
T1 sequence (looked up): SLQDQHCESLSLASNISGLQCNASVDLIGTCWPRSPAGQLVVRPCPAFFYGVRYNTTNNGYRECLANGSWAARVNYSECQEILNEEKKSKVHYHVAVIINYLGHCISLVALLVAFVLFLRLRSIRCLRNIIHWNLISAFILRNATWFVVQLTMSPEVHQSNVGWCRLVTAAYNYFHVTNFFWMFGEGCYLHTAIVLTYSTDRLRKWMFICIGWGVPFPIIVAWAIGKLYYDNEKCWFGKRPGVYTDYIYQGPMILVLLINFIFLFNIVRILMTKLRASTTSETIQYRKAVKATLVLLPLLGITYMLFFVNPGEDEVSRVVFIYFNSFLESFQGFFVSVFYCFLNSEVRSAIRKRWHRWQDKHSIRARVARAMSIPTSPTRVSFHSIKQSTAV

B1: peptide of SEQ ID NO: 32 (peptide)
peptide: IVLSLD[dV]PTKLK([γGlu-Palmitoyl])QKLLKQERQRKEREQAEKNVRILERV-NH2
modifications: not fully specified; printed as IVLSLDvPTKLK*QKLLKQERQRKEREQAEKNVRILERV-NH2
B2: peptide of SEQ ID NO: 14 (peptide)
peptide: FTLSLDVPTKIK([γGlu-Palmitoyl])QKLLKQEKQRKQKQKAKTNAKILARV-NH2
modifications: N-terminus assumed
SMILES: CCCCCCCCCCCCCCCC(=O)N[C@@H](CCC(=O)NCCCC[C@H](NC(=O)[C@@H](NC(=O)[C@H](CCCCN)NC(=O)[C@@H](NC(=O)[C@@H]1CCCN1C(=O)[C@@H](NC(=O)[C@H](CC(=O)O)NC(=O)[C@H](CC(C)C)NC(=O)[C@H](CO)NC(=O)[C@H](CC(C)C)NC(=O)[C@@H](NC(=O)[C@@H](N)Cc1ccccc1)[C@@H](C)O)C(C)C)[C@@H](C)O)[C@@H](C)CC)C(=O)N[C@@H](CCC(N)=O)C(=O)N[C@@H](CCCCN)C(=O)N[C@@H](CC(C)C)C(=O)N[C@@H](CC(C)C)C(=O)N[C@@H](CCCCN)C(=O)N[C@@H](CCC(N)=O)C(=O)N[C@@H](CCC(=O)O)C(=O)N[C@@H](CCCCN)C(=O)N[C@@H](CCC(N)=O)C(=O)N[C@@H](CCCNC(=N)N)C(=O)N[C@@H](CCCCN)C(=O)N[C@@H](CCC(N)=O)C(=O)N[C@@H](CCCCN)C(=O)N[C@@H](CCC(N)=O)C(=O)N[C@@H](CCCCN)C(=O)N[C@@H](C)C(=O)N[C@@H](CCCCN)C(=O)N[C@H](C(=O)N[C@@H](CC(N)=O)C(=O)N[C@@H](C)C(=O)N[C@@H](CCCCN)C(=O)N[C@H](C(=O)N[C@@H](CC(C)C)C(=O)N[C@@H](C)C(=O)N[C@@H](CCCNC(=N)N)C(=O)N[C@H](C(N)=O)C(C)C)[C@@H](C)CC)[C@@H](C)O)C(=O)O
B3: peptide of SEQ ID NO: 19 (peptide)
peptide: IVLSLD[dV]PTKLK([γGlu-Palmitoyl])QKLLKQERQR[Aib]EREQAEKNKRILERV-NH2
modifications: N-terminus assumed
SMILES: CCCCCCCCCCCCCCCC(=O)N[C@@H](CCC(=O)NCCCC[C@H](NC(=O)[C@H](CC(C)C)NC(=O)[C@H](CCCCN)NC(=O)[C@@H](NC(=O)[C@@H]1CCCN1C(=O)[C@H](NC(=O)[C@H](CC(=O)O)NC(=O)[C@H](CC(C)C)NC(=O)[C@H](CO)NC(=O)[C@H](CC(C)C)NC(=O)[C@@H](NC(=O)[C@@H](N)[C@@H](C)CC)C(C)C)C(C)C)[C@@H](C)O)C(=O)N[C@@H](CCC(N)=O)C(=O)N[C@@H](CCCCN)C(=O)N[C@@H](CC(C)C)C(=O)N[C@@H](CC(C)C)C(=O)N[C@@H](CCCCN)C(=O)N[C@@H](CCC(N)=O)C(=O)N[C@@H](CCC(=O)O)C(=O)N[C@@H](CCCNC(=N)N)C(=O)N[C@@H](CCC(N)=O)C(=O)N[C@@H](CCCNC(=N)N)C(=O)NC(C)(C)C(=O)N[C@@H](CCC(=O)O)C(=O)N[C@@H](CCCNC(=N)N)C(=O)N[C@@H](CCC(=O)O)C(=O)N[C@@H](CCC(N)=O)C(=O)N[C@@H](C)C(=O)N[C@@H](CCC(=O)O)C(=O)N[C@@H](CCCCN)C(=O)N[C@@H](CC(N)=O)C(=O)N[C@@H](CCCCN)C(=O)N[C@@H](CCCNC(=N)N)C(=O)N[C@H](C(=O)N[C@@H](CC(C)C)C(=O)N[C@@H](CCC(=O)O)C(=O)N[C@@H](CCCNC(=N)N)C(=O)N[C@H](C(N)=O)C(C)C)[C@@H](C)CC)C(=O)O
B4: peptide of SEQ ID NO: 161 (peptide)
peptide: Ac-IVLSLD[dV]PIKLK([AEEA-AEEA-γGlu-C18 diacid])QILLEQERQE[Aib]EREQAEKNEQILEQV-NH2
SMILES: CC[C@H](C)[C@H](NC(C)=O)C(=O)N[C@H](C(=O)N[C@@H](CC(C)C)C(=O)N[C@@H](CO)C(=O)N[C@@H](CC(C)C)C(=O)N[C@@H](CC(=O)O)C(=O)N[C@@H](C(=O)N1CCC[C@H]1C(=O)N[C@H](C(=O)N[C@@H](CCCCN)C(=O)N[C@@H](CC(C)C)C(=O)N[C@@H](CCCCNC(=O)COCCOCCNC(=O)COCCOCCNC(=O)CC[C@H](NC(=O)CCCCCCCCCCCCCCCCC(=O)O)C(=O)O)C(=O)N[C@@H](CCC(N)=O)C(=O)N[C@H](C(=O)N[C@@H](CC(C)C)C(=O)N[C@@H](CC(C)C)C(=O)N[C@@H](CCC(=O)O)C(=O)N[C@@H](CCC(N)=O)C(=O)N[C@@H](CCC(=O)O)C(=O)N[C@@H](CCCNC(=N)N)C(=O)N[C@@H](CCC(N)=O)C(=O)N[C@@H](CCC(=O)O)C(=O)NC(C)(C)C(=O)N[C@@H](CCC(=O)O)C(=O)N[C@@H](CCCNC(=N)N)C(=O)N[C@@H](CCC(=O)O)C(=O)N[C@@H](CCC(N)=O)C(=O)N[C@@H](C)C(=O)N[C@@H](CCC(=O)O)C(=O)N[C@@H](CCCCN)C(=O)N[C@@H](CC(N)=O)C(=O)N[C@@H](CCC(=O)O)C(=O)N[C@@H](CCC(N)=O)C(=O)N[C@H](C(=O)N[C@@H](CC(C)C)C(=O)N[C@@H](CCC(=O)O)C(=O)N[C@@H](CCC(N)=O)C(=O)N[C@H](C(N)=O)C(C)C)[C@@H](C)CC)[C@@H](C)CC)[C@@H](C)CC)C(C)C)C(C)C
B5: peptide of SEQ ID NO: 160 (peptide)
peptide: Ac-IVLSLD[dV]PIKLK([AEEA-AEEA-γGlu-C18 diacid])QILLEQERQE[Aib]EREQAETNKQILEQV-NH2
SMILES: CC[C@H](C)[C@H](NC(C)=O)C(=O)N[C@H](C(=O)N[C@@H](CC(C)C)C(=O)N[C@@H](CO)C(=O)N[C@@H](CC(C)C)C(=O)N[C@@H](CC(=O)O)C(=O)N[C@@H](C(=O)N1CCC[C@H]1C(=O)N[C@H](C(=O)N[C@@H](CCCCN)C(=O)N[C@@H](CC(C)C)C(=O)N[C@@H](CCCCNC(=O)COCCOCCNC(=O)COCCOCCNC(=O)CC[C@H](NC(=O)CCCCCCCCCCCCCCCCC(=O)O)C(=O)O)C(=O)N[C@@H](CCC(N)=O)C(=O)N[C@H](C(=O)N[C@@H](CC(C)C)C(=O)N[C@@H](CC(C)C)C(=O)N[C@@H](CCC(=O)O)C(=O)N[C@@H](CCC(N)=O)C(=O)N[C@@H](CCC(=O)O)C(=O)N[C@@H](CCCNC(=N)N)C(=O)N[C@@H](CCC(N)=O)C(=O)N[C@@H](CCC(=O)O)C(=O)NC(C)(C)C(=O)N[C@@H](CCC(=O)O)C(=O)N[C@@H](CCCNC(=N)N)C(=O)N[C@@H](CCC(=O)O)C(=O)N[C@@H](CCC(N)=O)C(=O)N[C@@H](C)C(=O)N[C@@H](CCC(=O)O)C(=O)N[C@H](C(=O)N[C@@H](CC(N)=O)C(=O)N[C@@H](CCCCN)C(=O)N[C@@H](CCC(N)=O)C(=O)N[C@H](C(=O)N[C@@H](CC(C)C)C(=O)N[C@@H](CCC(=O)O)C(=O)N[C@@H](CCC(N)=O)C(=O)N[C@H](C(N)=O)C(C)C)[C@@H](C)CC)[C@@H](C)O)[C@@H](C)CC)[C@@H](C)CC)C(C)C)C(C)C
B6: peptide of SEQ ID NO: 21 (peptide)
peptide: IVLSLD[dV]PTKLK([γGlu-Palmitoyl])QKLLKQERQRKE[Aib]EQAEKNKRILERV-NH2
modifications: N-terminus assumed
SMILES: CCCCCCCCCCCCCCCC(=O)N[C@@H](CCC(=O)NCCCC[C@H](NC(=O)[C@H](CC(C)C)NC(=O)[C@H](CCCCN)NC(=O)[C@@H](NC(=O)[C@@H]1CCCN1C(=O)[C@H](NC(=O)[C@H](CC(=O)O)NC(=O)[C@H](CC(C)C)NC(=O)[C@H](CO)NC(=O)[C@H](CC(C)C)NC(=O)[C@@H](NC(=O)[C@@H](N)[C@@H](C)CC)C(C)C)C(C)C)[C@@H](C)O)C(=O)N[C@@H](CCC(N)=O)C(=O)N[C@@H](CCCCN)C(=O)N[C@@H](CC(C)C)C(=O)N[C@@H](CC(C)C)C(=O)N[C@@H](CCCCN)C(=O)N[C@@H](CCC(N)=O)C(=O)N[C@@H](CCC(=O)O)C(=O)N[C@@H](CCCNC(=N)N)C(=O)N[C@@H](CCC(N)=O)C(=O)N[C@@H](CCCNC(=N)N)C(=O)N[C@@H](CCCCN)C(=O)N[C@@H](CCC(=O)O)C(=O)NC(C)(C)C(=O)N[C@@H](CCC(=O)O)C(=O)N[C@@H](CCC(N)=O)C(=O)N[C@@H](C)C(=O)N[C@@H](CCC(=O)O)C(=O)N[C@@H](CCCCN)C(=O)N[C@@H](CC(N)=O)C(=O)N[C@@H](CCCCN)C(=O)N[C@@H](CCCNC(=N)N)C(=O)N[C@H](C(=O)N[C@@H](CC(C)C)C(=O)N[C@@H](CCC(=O)O)C(=O)N[C@@H](CCCNC(=N)N)C(=O)N[C@H](C(N)=O)C(C)C)[C@@H](C)CC)C(=O)O

The binders below were run against T1, anti-target CRF1R receptor (assay: cell-based or functional assay).
B1 was tested, and the “EC50[nM] 0% HSA (cAMP, CRF1R-overexpression CHO cells)” value (“EC50[nM] 0% HSA” for short) was greater than 1000 nM and the “Emax (%) (cAMP, CRF1R-overexpression CHO cells)” value (from here on “Emax (%)”) was 27%. B2 was tested, and the “EC50[nM] 0% HSA” value was greater than 1000 nM and the “Emax (%)” value was 14.1%. With B3 the “EC50[nM] 0% HSA” value was 571 nM and the “Emax (%)” value was 57.4%. With B4 the “EC50[nM] 0% HSA” value was greater than 1000 nM and the “Emax (%)” value was 3.42%. In the case of B5, the “EC50[nM] 0% HSA” value is reported as greater than 1000 nM and the “Emax (%)” value is reported as 20.8%. For B6, the “EC50[nM] 0% HSA” value was 618 nM and the “Emax (%)” value was 59.2%.
